Test results from patent US20240226163A1 (Regeneron, published 2024).

Legend:
[1] = target: T1, HLA-A*02:01 presenting FN1 2182-2190 peptide (…) (human); test: flow cytometry, peptide-pulsed T2 cells;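 as to S/N ratio: ratio of peak mean fluorescence intensity across a 12-point threefold antibody dilution series to the MFI with secondary antibody only, live-gated cells by flow cytometry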
T1 construct: On peptide-pulsed T2 cells; also called T2 Pulsed FN1 2182-2190
Method: (§1) Samples were run on an Intellicyt iQue flow cytometer (Intellicyt) and results were analyzed using Forecyte analysis software (Intellicyte) to calculate the mean fluorescent intensity (MFI) after gating for live cells. MFI values were plotted in Graphpad Prism using a four-parameter logistic equation over a 12-point response curve to calculate EC₅₀ values. The secondary antibody alone (i.e. no primary antibody) for each dose-response curve is also included in the analysis as a continuation of the three-fold serial dilution and is represented as the lowest dose. The signal to noise (S/N) was determined by taking the ratio of the highest MFI on the dose response curve to the MFI in the secondary alone wells.

[2] = target: T2, HLA-A*02:01 presenting SMIM11A 4-12 peptide (…) (human); test: flow cytometry, peptide-pulsed T2 cells;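 as to S/N ratio: ratio of peak mean fluorescence intensity across a 12-point threefold antibody dilution series to the MFI with secondary antibody only, live-gated cells by flow cytometry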
T2 construct: On peptide-pulsed T2 cells; also called T2 Pulsed SMIM11A 4-12
Method: as §1

[3] = target: HLA-A*02:01 presenting MAGE-A4 286-294 peptide (…) (human); test: cell-based or functional assay
[4] = target: HLA-A*02:01 presenting MAGE-A4 286-294 peptide (…) (human); test: cell-based or functional assay; remark: listed apart in the source
[5] = target: HLA-A*02:01 presenting AOX1 795-803 peptide (…) (human); test: cell-based or functional assay
[6] = target: HLA-A*02:01 presenting NBAS 2063-2071 peptide (…) (human); test: cell-based or functional assay
[7] = target: HLA-A*02:01 presenting CNOT1 1965-1973 peptide (…) (human); test: cell-based or functional assay
[8] = target: HLA-A*02:01 presenting PCDHGC3 337-345 peptide (…) (human); test: cell-based or functional assay
[9] = target: HLA-A*02:01 presenting SHTN1 198-206 peptide (…) (human); test: cell-based or functional assay
[10] = target: T1, HLA-A*02:01 presenting FN1 2182-2190 …; test: cell-based or functional assay
[11] = target: HLA-A*02:01 presenting MRPL37 334-342 peptide (…) (human); test: cell-based or functional assay
[12] = target: HLA-A*02:01 presenting TEP1 2156-2164 peptide (…) (human); test: cell-based or functional assay
[13] = target: HLA-A*02:01 presenting PSME2 145-153 peptide (…) (human); test: cell-based or functional assay
[14] = target: HLA-A*02:01 presenting RABGAP1L 408-416 peptide (…) (human); test: cell-based or functional assay
[15] = target: T2, HLA-A*02:01 presenting SMIM11A 4-12 …; test: cell-based or functional assay
[16] = target: HLA-A*02:01 presenting PLEKHH2 790-798 peptide (…) (human); test: cell-based or functional assay
[17] = target: HLA-A*02:01 presenting MAGE-A4 286-294 peptide (…) (human); test: cell-based or functional assay; remark: listed apart in the source
[18] = target: HLA-A*02:01 presenting CARD8 170-178 peptide (…) (human); test: cell-based or functional assay
[19] = target: T3, HLA-A*02:01 presenting HEATR5A 1925-1933 peptide (…) (human); test: cell-based or functional assay
[20] = target: T4, HLA-A*02:01 presenting NBAS 2063-2071 peptide (…) (human); test: flow cytometry, peptide-pulsed T2 cells;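 as to S/N ratio: ratio of peak mean fluorescence intensity across a 12-point threefold antibody dilution series to the MFI with secondary antibody only, live-gated cells by flow cytometry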
T4 construct: On peptide-pulsed T2 cells; also called T2 Pulsed NBAS 2063-2071

[21] = target: T5, HLA-A*02:01 presenting CNOT1 1965-1973 peptide (…) (human); test: flow cytometry, peptide-pulsed T2 cells;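 as to S/N ratio: ratio of peak mean fluorescence intensity across a 12-point threefold antibody dilution series to the MFI with secondary antibody only, live-gated cells by flow cytometry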
T5 construct: On peptide-pulsed T2 cells; also called T2 Pulsed CNOT1 1965-1973

[22] = target: T6, HLA-A*02:01 presenting PCDHGC3 337-345 peptide (…) (human); test: flow cytometry, peptide-pulsed T2 cells
T6 construct: On peptide-pulsed T2 cells; also called T2 Pulsed PCDHGC3 337-345

[23] = target: T1, HLA-A*02:01 presenting FN1 2182-2190 …; test: flow cytometry, peptide-pulsed T2 cells; remark: listed apart in the source
[24] = target: T7, HLA-A*02:01 presenting MRPL37 334-342 peptide (…) (human); test: flow cytometry, peptide-pulsed T2 cells
T7 construct: On peptide-pulsed T2 cells; also called T2 Pulsed MRPL37 334-342

[25] = target: T8, HLA-A*02:01 presenting TEP1 2156-2164 peptide (…) (human); test: flow cytometry, peptide-pulsed T2 cells
T8 construct: On peptide-pulsed T2 cells; also called T2 Pulsed TEP1 2156-2164

[26] = target: T9, HLA-A*02:01 presenting PSME2 145-153 peptide (…) (human); test: flow cytometry, peptide-pulsed T2 cells
T9 construct: On peptide-pulsed T2 cells; also called T2 Pulsed PSME2 145-153

[27] = target: T10, HLA-A*02:01 presenting RABGAP1L 408-416 peptide (…) (human); test: flow cytometry, peptide-pulsed T2 cells
T10 construct: On peptide-pulsed T2 cells; also called T2 Pulsed RABGAP1L 408-416

[28] = target: T2, HLA-A*02:01 presenting SMIM11A 4-12 …; test: flow cytometry, peptide-pulsed T2 cells; remark: listed apart in the source
[29] = target: T11, HLA-A*02:01 presenting PLEKHH2 790-798 peptide (…) (human); test: flow cytometry, peptide-pulsed T2 cells
T11 construct: On peptide-pulsed T2 cells; also called T2 Pulsed PLEKHH2 790-798

[30] = target: T12, HLA-A*02:01 presenting CARD8 170-178 peptide (…) (human); test: flow cytometry, peptide-pulsed T2 cells
T12 construct: On peptide-pulsed T2 cells; also called T2 Pulsed CARD8 170-178

[31] = target: T3, HLA-A*02:01 presenting HEATR5A …; test: flow cytometry, peptide-pulsed T2 cells

B1: bsAb6043 (bispecific antibody, V domains shown)
VH 1: QVQLVESGGGLVKPGGSLRLSCAASGFTFSEYYLTWIRQAPGKGLDWIAYISSSGYNIYYADSVKDRFTISRDNGKNSLFLQMNNLRAEDTAVYFCAREGVTDGMDVWGQGTTVTVSS
VH 2: EVQLVESGGGLVQPGRSLRLSCAASGFTFDDYSMHWVRQAPGKGLEWVSGISWNSGSKGYADSVKGRFTISRDNAKNSLYLQMNSLRAEDTALYYCAKYGSGYGKFYHYGLDVWGQGTTVTVSS
VL: DIQMTQSPSSLSASVGDRVTITCRASQSIDTFLNWYQQKPGKVPKLLIYAASNLESGVPSRFSGSGSGTVFTLTISRLQPEDFATYYCQQSYSIPPITFGQGTRVEIK
notes: Only variable regions are tied to the bispecific; also called MAGE-A4×CD3 (7221G) bispecific antibody
[1]
  S/N ratio: 1
[2]
  S/N ratio: 1
[3]
  Fold Activation, NF-κB luciferase, Jurkat/NF-κB Luc + IM-9: 1.8 fold
  Fold Activation, NF-κB luciferase, Jurkat/NF-κB Luc + U266: 0.9 fold
[4]
  Fold Activation, NF-κB luciferase, Jurkat + IM-9, with 2 nM mAb5705 (anti-CD28): 1.1 fold
  Fold Activation, NF-κB luciferase, Jurkat + U266, with 2 nM mAb5705 (anti-CD28): 0.9 fold
[5]
  EC50 (M), Jurkat/NF-κB-Luc reporter with pulsed T2 cells: 3.3e-10 M
  Fold change, Jurkat/NF-κB-Luc reporter with pulsed T2 cells: 40.4 fold
[6]
  EC50 (M), Jurkat/NF-κB-Luc reporter with pulsed T2 cells: > 2e-08 M
  Fold change, Jurkat/NF-κB-Luc reporter with pulsed T2 cells: 1.6 fold
[7]
  EC50 (M), Jurkat/NF-κB-Luc reporter with pulsed T2 cells: > 2e-08 M
  Fold change, Jurkat/NF-κB-Luc reporter with pulsed T2 cells: 1 fold
[8]
  EC50 (M), Jurkat/NF-κB-Luc reporter with pulsed T2 cells: > 2e-08 M
  Fold change, Jurkat/NF-κB-Luc reporter with pulsed T2 cells: 1 fold
[9]
  EC50 (M), Jurkat/NF-κB-Luc reporter with pulsed T2 cells: 3.5e-09 M
  Fold change, Jurkat/NF-κB-Luc reporter with pulsed T2 cells: 75.3 fold
[10]
  EC50 (M), Jurkat/NF-κB-Luc reporter with pulsed T2 cells: > 2e-08 M
  Fold change, Jurkat/NF-κB-Luc reporter with pulsed T2 cells: 1 fold
[11]
  EC50 (M), Jurkat/NF-κB-Luc reporter with pulsed T2 cells: > 2e-08 M
  Fold change, Jurkat/NF-κB-Luc reporter with pulsed T2 cells: 1.2 fold
[12]
  EC50 (M), Jurkat/NF-κB-Luc reporter with pulsed T2 cells: > 2e-08 M
  Fold change, Jurkat/NF-κB-Luc reporter with pulsed T2 cells: 1.9 fold
[13]
  EC50 (M), Jurkat/NF-κB-Luc reporter with pulsed T2 cells: > 2e-08 M
  Fold change, Jurkat/NF-κB-Luc reporter with pulsed T2 cells: 1 fold
[14]
  EC50 (M), Jurkat/NF-κB-Luc reporter with pulsed T2 cells: > 2e-08 M
  Fold change, Jurkat/NF-κB-Luc reporter with pulsed T2 cells: 1.1 fold
[15]
  EC50 (M), Jurkat/NF-κB-Luc reporter with pulsed T2 cells: > 2e-08 M
  Fold change, Jurkat/NF-κB-Luc reporter with pulsed T2 cells: 1.2 fold
[16]
  EC50 (M), Jurkat/NF-κB-Luc reporter with pulsed T2 cells: > 2e-08 M
  Fold change, Jurkat/NF-κB-Luc reporter with pulsed T2 cells: 1.9 fold
[17]
  EC50 (M), Jurkat/NF-κB-Luc reporter with pulsed T2 cells: 3e-10 M
  Fold change, Jurkat/NF-κB-Luc reporter with pulsed T2 cells: 75.3 fold
[18]
  EC50 (M), Jurkat/NF-κB-Luc reporter with pulsed T2 cells: > 2e-08 M
  Fold change, Jurkat/NF-κB-Luc reporter with pulsed T2 cells: 1.8 fold
[19]
  EC50 (M), Jurkat/NF-κB-Luc reporter with pulsed T2 cells: > 2e-08 M
  Fold change, Jurkat/NF-κB-Luc reporter with pulsed T2 cells: 2.1 fold
[20]
  binding result: no binding
[21]
  binding result: no binding
[22]
  binding result: no binding
[23]
  binding result: no binding
[24]
  binding result: no binding
[25]
  binding result: no binding
[26]
  binding result: no binding
[27]
  binding result: no binding
[28]
  binding result: no binding
[29]
  binding result: no binding
[30]
  binding result: no binding
[31]
  binding result: no binding
